This note sets out measurements from patent publication US11597760 (dated 2023).

In experiment [1] the target is human C5 (human). The experiment can be described thus: SPR, pH 7.4, 37C.
The target in experiment [2] is human C5 (human). In words: SPR, pH 5.8, 37C. For orientation: Surface plasmon resonance follows binding to a sensor surface in real time, without labels.
The target in the next experiment is T1, cynomolgus C5 (cynomolgus monkey).
T1 chain: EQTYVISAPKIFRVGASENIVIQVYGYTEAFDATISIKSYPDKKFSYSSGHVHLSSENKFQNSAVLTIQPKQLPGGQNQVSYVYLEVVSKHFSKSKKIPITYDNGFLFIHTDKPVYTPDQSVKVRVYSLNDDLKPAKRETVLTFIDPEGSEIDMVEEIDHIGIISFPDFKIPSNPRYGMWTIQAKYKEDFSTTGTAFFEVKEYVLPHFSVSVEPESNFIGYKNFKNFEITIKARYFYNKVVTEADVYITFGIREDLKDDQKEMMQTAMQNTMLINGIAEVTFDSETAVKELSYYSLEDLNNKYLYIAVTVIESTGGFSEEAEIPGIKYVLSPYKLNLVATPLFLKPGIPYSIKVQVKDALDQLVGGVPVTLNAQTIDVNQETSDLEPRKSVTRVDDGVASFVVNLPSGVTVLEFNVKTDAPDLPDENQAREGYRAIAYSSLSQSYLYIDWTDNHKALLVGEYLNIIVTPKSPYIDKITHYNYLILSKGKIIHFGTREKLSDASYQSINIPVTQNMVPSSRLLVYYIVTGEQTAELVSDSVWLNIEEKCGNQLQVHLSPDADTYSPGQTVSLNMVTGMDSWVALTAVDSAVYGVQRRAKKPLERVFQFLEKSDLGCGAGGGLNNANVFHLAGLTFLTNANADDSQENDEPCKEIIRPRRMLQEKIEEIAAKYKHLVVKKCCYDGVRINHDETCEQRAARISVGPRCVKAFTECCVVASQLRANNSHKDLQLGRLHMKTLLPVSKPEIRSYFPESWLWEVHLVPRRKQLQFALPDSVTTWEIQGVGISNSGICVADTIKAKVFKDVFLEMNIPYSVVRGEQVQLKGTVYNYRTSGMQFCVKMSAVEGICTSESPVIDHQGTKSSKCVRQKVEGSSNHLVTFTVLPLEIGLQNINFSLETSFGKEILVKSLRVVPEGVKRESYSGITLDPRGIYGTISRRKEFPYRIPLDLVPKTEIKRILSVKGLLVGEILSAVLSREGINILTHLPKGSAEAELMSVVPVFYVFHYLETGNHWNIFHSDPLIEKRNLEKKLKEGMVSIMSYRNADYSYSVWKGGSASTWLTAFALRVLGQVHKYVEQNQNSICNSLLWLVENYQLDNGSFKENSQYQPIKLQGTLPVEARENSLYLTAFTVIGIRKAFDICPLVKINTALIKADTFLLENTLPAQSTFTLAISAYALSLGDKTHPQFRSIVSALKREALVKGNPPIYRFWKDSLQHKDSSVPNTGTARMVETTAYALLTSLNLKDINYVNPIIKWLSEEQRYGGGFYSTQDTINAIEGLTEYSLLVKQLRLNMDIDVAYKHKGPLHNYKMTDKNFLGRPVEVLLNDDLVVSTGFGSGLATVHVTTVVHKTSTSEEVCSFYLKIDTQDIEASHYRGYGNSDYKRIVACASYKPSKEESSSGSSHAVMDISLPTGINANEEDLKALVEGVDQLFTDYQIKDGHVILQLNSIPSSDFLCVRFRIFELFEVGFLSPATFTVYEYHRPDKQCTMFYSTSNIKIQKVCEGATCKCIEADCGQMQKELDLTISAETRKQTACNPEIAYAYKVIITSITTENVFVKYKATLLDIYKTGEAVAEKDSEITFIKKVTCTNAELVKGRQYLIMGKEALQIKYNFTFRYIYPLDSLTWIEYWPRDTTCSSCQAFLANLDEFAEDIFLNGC
The experiment can be described thus: SPR, pH 7.4, 37C.

The next experiment deals with C5-D51A (human). The experiment can be described thus: other, Western blot.
Another experiment has as its target C5-K109A (human). The experiment can be described thus: other, Western blot. In general terms: Immunoblotting shows a protein as a band on a membrane.

B1: CFA0305 (antibody, V domains shown)
VH: QSLEESGGDLVKPGASLAVTCTASGFSSSSSYYMCWVRQAPGKGLEWIGCIYTGSGATYYASWAKGRFTISKTSSTTVTLQMTSLTVADTATYFCASDGGYVTPTHAMYLWGPGTLVTVSS
VL: DVVMTQTPASVSAAVGGTVTIKCQASQNIGSDLAWYQQKPGQPPRLLIYGASKLASGVSSRFSGSGSGKEFTLTISDLECADAVTYYCQCTFVGSSYGNAFGGGTEVVVK
The term Kd denotes the concentration at which binding is half-saturated. Higher therefore signals lower affinity. Turning to B1, the values for the Kd with human C5 [1], with human C5 [2] and in the experiment with cynomolgus C5 were 15.4 nM, 430 nM and 5.54 nM, respectively. Also, the binding result with C5-D51A and with C5-K109A was “no binding” each time.
